{"source": "patent US10273464B2", "about": "“Methods and isolated protein compositions for isoprenoid diphosphate synthesis” (The Salk Institute for Biological Studies, priority 2009, dated 2019)", "molecules": {"B1": {"name": "IPK-Mjannaschii H60A: M. jannaschii IPK with His60 mutated to Ala (protein, UniProt Q60352 1-260, looked up, variant H60A)", "Isopentenyl phosphate kinase": "MLTILKLGGSILSDKNVPYSIKWDNLERIAMEIKNALDYYKNQNKEIKLILVHGGGAFGAPVAKKYLKIEDGKKIFINMEKGFWEIQRAMRRFNNIIIDTLQSYDIPAVSIQPSSFVVFGDKLIFDTSAIKEMLKRNLVPVIHGDIVIDDKNGYRIISGDDIVPYLANELKADLILYATDVDGVLIDNKPIKRIDKNNIYKILNYLSGSNSIDVTGGMKYKIDMIRKNKCRGFVFNGNKANNIYKALLGEVEGTEIDFSE"}, "B2": {"name": "I86A: IPK single mutant, residue 86 Ile to Ala (protein, listed as Methanocaldococcus jannaschii)", "chain": "MLTILKLGGSILSDKNVPYSIKWDNLERIAMEIKNALDYYKNQNKEIKLILVHGGGAFGHPVAKKYLKIEDGKKIFINMEKGFWEAQRAMRRFNNIIIDTLQSYDIPAVSIQPSSFVVFGDKLIFDTSAIKEMLKRNLVPVIHGDIVIDDKNGYRIISGDDIVPYLANELKADLILYATDVDGVLIDNKPIKRIDKNNIYKILNYLSGSNSIDVTGGMKYKIEMIRKNKCRGFVFNGNKANNIYKALLGEVEGTEIDFSE"}, "B3": {"name": "IPK-Mjannaschii H60N: M. jannaschii IPK with His60 mutated to Asn (protein, UniProt Q60352 1-260, looked up, variant H60N)", "Isopentenyl phosphate kinase": "MLTILKLGGSILSDKNVPYSIKWDNLERIAMEIKNALDYYKNQNKEIKLILVHGGGAFGNPVAKKYLKIEDGKKIFINMEKGFWEIQRAMRRFNNIIIDTLQSYDIPAVSIQPSSFVVFGDKLIFDTSAIKEMLKRNLVPVIHGDIVIDDKNGYRIISGDDIVPYLANELKADLILYATDVDGVLIDNKPIKRIDKNNIYKILNYLSGSNSIDVTGGMKYKIDMIRKNKCRGFVFNGNKANNIYKALLGEVEGTEIDFSE"}, "B4": {"name": "I86A/I146A: IPK double mutant I86A and I146A (protein)", "chain": "MLTILKLGGSILSDKNVPYSIKWDNLERIAMEIKNALDYYKNQNKEIKLILVHGGGAFGHPVAKKYLKIEDGKKIFINMEKGFWEAQRAMRRFNNIIIDTLQSYDIPAVSIQPSSFVVFGDKLIFDTSAIKEMLKRNLVPVIHGDAVIDDKNGYRIISGDDIVPYLANELKADLILYATDVDGVLIDNKPIKRIDKNNIYKILNYLSGSNSIDVTGGMKYKIEMIRKNKCRGFVFNGNKANNIYKALLGEVEGTEIDFSE"}, "B5": {"name": "I146V: IPK mutant, residue 146 Ile to Val (protein, listed as Methanocaldococcus jannaschii)", "chain": "MLTILKLGGSILSDKNVPYSIKWDNLERIAMEIKNALDYYKNQNKEIKLILVHGGGAFGHPVAKKYLKIEDGKKIFINMEKGFWEIQRAMRRFNNIIIDTLQSYDIPAVSIQPSSFVVFGDKLIFDTSAIKEMLKRNLVPVIHGDVVIDDKNGYRIISGDDIVPYLANELKADLILYATDVDGVLIDNKPIKRIDKNNIYKILNYLSGSNSIDVTGGMKYKIEMIRKNKCRGFVFNGNKANNIYKALLGEVEGTEIDFSE"}, "B6": {"name": "I156V: IPK mutant, residue 156 Ile to Val (protein, listed as Methanocaldococcus jannaschii)", "chain": "MLTILKLGGSILSDKNVPYSIKWDNLERIAMEIKNALDYYKNQNKEIKLILVHGGGAFGHPVAKKYLKIEDGKKIFINMEKGFWEIQRAMRRFNNIIIDTLQSYDIPAVSIQPSSFVVFGDKLIFDTSAIKEMLKRNLVPVIHGDIVIDDKNGYRVISGDDIVPYLANELKADLILYATDVDGVLIDNKPIKRIDKNNIYKILNYLSGSNSIDVTGGMKYKIEMIRKNKCRGFVFNGNKANNIYKALLGEVEGTEIDFSE"}, "B7": {"name": "I146A: IPK single mutant, residue 146 Ile to Ala (protein, listed as Methanocaldococcus jannaschii)", "chain": "MLTILKLGGSILSDKNVPYSIKWDNLERIAMEIKNALDYYKNQNKEIKLILVHGGGAFGHPVAKKYLKIEDGKKIFINMEKGFWEIQRAMRRFNNIIIDTLQSYDIPAVSIQPSSFVVFGDKLIFDTSAIKEMLKRNLVPVIHGDAVIDDKNGYRIISGDDIVPYLANELKADLILYATDVDGVLIDNKPIKRIDKNNIYKILNYLSGSNSIDVTGGMKYKIEMIRKNKCRGFVFNGNKANNIYKALLGEVEGTEIDFSE"}, "B8": {"name": "IPK-Mjannaschii H60Q: M. jannaschii IPK with His60 mutated to Gln (protein, UniProt Q60352 1-260, looked up, variant H60Q)", "Isopentenyl phosphate kinase": "MLTILKLGGSILSDKNVPYSIKWDNLERIAMEIKNALDYYKNQNKEIKLILVHGGGAFGQPVAKKYLKIEDGKKIFINMEKGFWEIQRAMRRFNNIIIDTLQSYDIPAVSIQPSSFVVFGDKLIFDTSAIKEMLKRNLVPVIHGDIVIDDKNGYRIISGDDIVPYLANELKADLILYATDVDGVLIDNKPIKRIDKNNIYKILNYLSGSNSIDVTGGMKYKIDMIRKNKCRGFVFNGNKANNIYKALLGEVEGTEIDFSE"}, "B9": {"name": "F83A/I86A/I156A: IPK triple mutant F83A, I86A, I156A (protein)", "chain": "MLTILKLGGSILSDKNVPYSIKWDNLERIAMEIKNALDYYKNQNKEIKLILVHGGGAFGHPVAKKYLKIEDGKKIFINMEKGAWEAQRAMRRFNNIIIDTLQSYDIPAVSIQPSSFVVFGDKLIFDTSAIKEMLKRNLVPVIHGDIVIDDKNGYRAISGDDIVPYLANELKADLILYATDVDGVLIDNKPIKRIDKNNIYKILNYLSGSNSIDVTGGMKYKIEMIRKNKCRGFVFNGNKANNIYKALLGEVEGTEIDFSE"}}, "assay_type_in_all_cases": "biochemical", "key": {"[1]": {"experiment": "pyruvate kinase-lactate dehydrogenase coupled assay, IP as variable substrate", "settings": "25° C.; for kinase activity (rate of IP turnover): relevant concentrations of IP and enzyme", "procedure": "All specific activity and kinetic measurements were performed using the pyruvate kinase-lactate dehydrogenase coupled assay with reference to a previously established protocol (Lindsley, 2001, Methods Mol. Biol. 95:57-64.). The reaction includes the following components in a 200 ul volume: 7 U pyruvate kinase, 10 U lactate dehydrogenase, 2 mM phosphoenolpyruvate, 0.16 mM NADH, 50 mM TRIS HCl pH 8.0, 100 mM KCl, 8 mM MgCl2, 4 mM ATP, and variable concentrations of IP (purchased from Larodan Fine Chemicals). The reaction was initiated by the addition of IPK (0.15 ug) and was followed by observing the depletion of NADH at 340 nm over time, expressed as Δ(AU340)/Δt, which was converted to Δ(ADP)/Δt. These values were then plotted against substrate concentration in GraphPad Prism® (Version 5.01 for Windows) to compute the kinetic parameters kcat and Km using the “nonlinear regression enzyme kinetic analysis” option.\nFrom the results discussed above, it is evident that His60 from IPK plays an important role in both substrate and product binding. This is accomplished through a hydrogen bonding interaction between the Nε2 atom of His60 and a non-bridging O atom from the terminal phosphate group on either the substrate (IP) or the product (IPP). From all crystal structure data, it is apparent that the Nε2 group of His60 (and not the Nδ1 group) is relevant for binding and may therefore be reasonably assumed by one skilled in the art to be relevant for IPK-mediated catalysis. To confirm this hypothesis, His60 was mutated to Ala, Asn, and Gln. The Asn and Gln mutations were made based on the rationale that their side chains contain N atoms that are isosteric with the Nδ1 and Nε2 groups on His, respectively."}, "[2]": {"experiment": "coupled IPK / 5-epi-aristolochene synthase (TEAS) vial assay, GC-MS, FP to FPP conversion", "settings": "10 μM IPK, 150 μM FP, ATP, Mg, pH 8.0, 20 minutes at 55° C., 5-epi-aristolochene quantified by GC-MS", "procedure": "FIG. 10: Assays of IPK and mutants. The single mutants of IPK, I86A and I146A, and the double mutant I86A/I146A, were tested with the C15-substrate farnesyl monophosphate (FP) using a coupled assay with a terpene cyclase (TEAS). In the first step of the reaction, IPK was incubated with magnesium, ATP, and FP at pH 8.0 for 20 minutes at 55° C. (assuming sufficient time for conversion of FP to FPP). In the second step of the reaction, a small sample of the first reaction was added to a glass vial containing magnesium and a sesquiterpene cyclase known as tobacco 5-epi-aristolochene synthase (TEAS), and this reaction was incubated overnight at 25° C. Assuming complete conversion of FPP to 5-epi-aristolochene, the reaction was extracted with ethyl acetate and the amount of 5-epi-aristolochene was quantified by GC-MS analysis.\nFIGS. 11A-11B: Farnesyl phosphate (FP) phosphorylation by IPK chain length mutants. FIG. 11A: FIG. 11A depicts the coupled IPK-sesquiterpene synthase reaction used to test for FP transphosphorylation. FIG. 11B: FIG. 11B depicts comparative bar graph showing several IPK mutants qualitatively tested for their ability to convert FP to FPP, expressed as a percentage of maximal production of 5-epi-aristolocene produced from IPK-generated FPP using wild-type IPK and identical concentrations of wild-type tobacco 5-epi-aristolochene synthase incubated for equivalent lengths of time.\nIPK mutants (at a final concentration of 10 μM) were incubated in a 50 μl reaction with 150 μM farnesyl monophosphate (FP), 7 mM MgCl2, 4 mM ATP, and 50 mM TRIS.HCl pH 8.0 for 20 minutes at 55° C. 10 μl of this reaction was then added to a 500 μl reaction containing 45 ug of the terpene cyclase 5-epi-aristolochene synthase (TEAS) and 10 mM MgCl2 in a 3-component buffer system (25 mM MES, 50 mM TRIS.HCl, 25 mM CAPS) at pH 7.0. A method known as the “vial assay” (O'Maille et al., 2004, Anal. Biochem. 335:210-217) was employed by overlaying this aqueous layer with 500 μl of ethyl acetate, incubating overnight at 25° C., and vortexing to extract the terpene product into the organic layer prior to quantitative GC-MS analysis. Both negative and positive control reactions were conducted as follows. For the negative control, no IPK was added to the first reaction. For the positive control, […] of FPP (equivalent to the amount that would be present assuming complete FP to FPP turnover) was added to the TEAS reaction.\nSimilar studies were conducted using FPP modeled into the active site of IPK. The reaction of IPK on FP to form FPP is depicted in FIG. 10. The I146A I86A single-residue mutations, and the […] double mutation were tested with the C15-substrate farnesyl monophosphate (FP) using a coupled assay with a terpene cyclase (TEAS). In the first step of the reaction, IPK was incubated with magnesium, ATP, and FP at pH 8.0 for 20 minutes at 55° C., which was judged as sufficient time for conversion of FP to FPP. In the second step of the reaction, a small sample of the first reaction was added to a glass vial containing magnesium and a sesquiterpene cyclase known as tobacco 5-epi-aristolochene synthase (TEAS), and this reaction was incubated overnight at 25° C. Assuming complete conversion of FPP to 5-epi-aristolochene, the reaction was extracted with ethyl acetate and the amount of 5-epi-aristolochene was quantitated by GC-MS analysis."}, "[3]": {"experiment": "pyruvate kinase-lactate dehydrogenase coupled assay, Km for ATP", "settings": "25° C.", "procedure": "All specific activity and kinetic measurements were performed using the pyruvate kinase-lactate dehydrogenase coupled assay with reference to a previously established protocol (Lindsley, 2001, Methods Mol. Biol. 95:57-64.). […] The reaction was initiated by the addition of IPK (0.15 ug) and was followed by observing the depletion of NADH at 340 nm over time, expressed as Δ(AU340)/Δt, which was converted to Δ(ADP)/Δt. These values were then plotted against substrate concentration in GraphPad Prism® (Version 5.01 for Windows) to compute the kinetic parameters kcat and Km using the “nonlinear regression enzyme kinetic analysis” option."}}, "note": "Entries after “also recorded” stand apart in the source; their conditions may differ."}
{"molecule": "B1", "values": [{"measurement": "kinase activity (rate of IP turnover)", "setting": "[1]", "result": "immeasurable; also recorded: no measurable activity"}]}
{"molecule": "B2", "values": [{"measurement": "conversion (phosphorylation) of FP to FPP", "setting": "[2]", "result": "significant percentage of FP; also recorded: significant percentage of substrate"}]}
{"molecule": "B3", "values": [{"measurement": "kinase activity (rate of IP turnover)", "setting": "[1]", "result": "immeasurable; also recorded: no measurable activity"}]}
{"molecule": "B4", "values": [{"measurement": "conversion (phosphorylation) of FP to FPP", "setting": "[2]", "result": "significant percentage of substrate"}, {"measurement": "conversion (phosphorylation) of FP to FPP", "setting": "[2]; listed as I146A/I146A", "result": "significant percentage of FP"}]}
{"molecule": "B5", "values": [{"measurement": "conversion (phosphorylation) of FP to FPP", "setting": "[2]", "result": "decreased activity"}]}
{"molecule": "B6", "values": [{"measurement": "conversion (phosphorylation) of FP to FPP", "setting": "[2]", "result": "decreased activity"}]}
{"molecule": "B7", "values": [{"measurement": "conversion (phosphorylation) of FP to FPP", "setting": "[2]", "result": "significant percentage of FP; also recorded: significant percentage of substrate"}]}
{"molecule": "B8", "values": [{"measurement": "Km", "setting": "[3]", "result": 559, "unit": "µM"}, {"measurement": "Km", "setting": "[1]", "result": 34.5, "unit": "µM"}, {"measurement": "kcat", "setting": "[1]", "result": "0.040 ± 0.002", "unit": "s⁻¹"}, {"measurement": "kinase activity (rate of IP turnover)", "setting": "[1]", "result": "able to turn over a measurable amount of IP"}, {"measurement": "Km for IP, fold larger than wild type", "setting": "[1]; versus wild type IPK", "result": 8, "unit": "fold"}, {"measurement": "kcat, fold slower than wild type", "setting": "[1]; versus wild type IPK", "result": "~40", "unit": "fold"}, {"measurement": "kcat", "setting": "[1]; listed as H60Q", "result": 0.04, "unit": "s⁻¹"}]}
{"molecule": "B9", "values": [{"measurement": "conversion (phosphorylation) of FP to FPP", "setting": "[2]", "result": "greatest turnover"}]}
